{
  "source": "the Human Domainome abundance scans (Beltran et al. 2025)",
  "parents": {"B1": {"name": "Segment polarity protein dishevelled homolog DVL-3, residues 2 to 81; numbered along this chain, Q92997 (parent)", "chain": "GETKIIYHLDGQETPYLVKLPLPAERVTLADFKGVLQRPSYKFFFKSMDDDFGVVKEEISDDNAKLPCFNGRVVSWLVSA"}},
  "note": "± gives the uncertainty stated by the source.",
  "data": [
    {"variants_of": "B1", "assay": "abundance fitness (aPCA) (normalised: wild type 0, dead -1); higher = more abundant; growth selection in yeast, the domain comes from the species named", "conditions": "Homo sapiens", "values": [
      {"variant": "GETKIIYHLDGQETPYLVKLPLPAERVTLADFKGVLQRPSYKFFFKSLDDDFGVVKEEISDDNAKLPCFNGRVVSWLVSA", "abundance fitness": "-0.074 ± 0.056"},
      {"variant": "GETKIIYHLDGQETPYLVKLPLPAERVTLADFKGVLQRPSYKFFFKSFDDDFGVVKEEISDDNAKLPCFNGRVVSWLVSA", "abundance fitness": "-0.121 ± 0.1"},
      {"variant": "GETKIIYHLDGQETPYLVKLPLPAERVTLADFKGVLQRPSYKFFFKSSDDDFGVVKEEISDDNAKLPCFNGRVVSWLVSA", "abundance fitness": "0.283 ± 0.047"},
      {"variant": "GETKIIYHLDGQETPYLVKLPLPAERVTLADFKGVLQRPSYKFFFKSIDDDFGVVKEEISDDNAKLPCFNGRVVSWLVSA", "abundance fitness": "-0.13 ± 0.12"},
      {"variant": "GETKIIYHLDGQETPYLVKLPLPAERVTLADFKGVLQRPSYKFFFKSTDDDFGVVKEEISDDNAKLPCFNGRVVSWLVSA", "abundance fitness": "0.296 ± 0.057"},
      {"variant": "GETKIIYHLDGQETPYLVKLPLPAERVTLADFKGVLQRPSYKFFFKSCDDDFGVVKEEISDDNAKLPCFNGRVVSWLVSA", "abundance fitness": "0.133 ± 0.067"},
      {"variant": "GETKIIYHLDGQETPYLVKLPLPAERVTLADFKGVLQRPSYKFFFKSEDDDFGVVKEEISDDNAKLPCFNGRVVSWLVSA", "abundance fitness": "0.09 ± 0.068"},
      {"variant": "GETKIIYHLDGQETPYLVKLPLPAERVTLADFKGVLQRPSYKFFFKSVDDDFGVVKEEISDDNAKLPCFNGRVVSWLVSA", "abundance fitness": "0.125 ± 0.048"},
      {"variant": "GETKIIYHLDGQETPYLVKLPLPAERVTLADFKGVLQRPSYKFFFKSRDDDFGVVKEEISDDNAKLPCFNGRVVSWLVSA", "abundance fitness": "0.204 ± 0.039"},
      {"variant": "GETKIIYHLDGQETPYLVKLPLPAERVTLADFKGVLQRPSYKFFFKSQDDDFGVVKEEISDDNAKLPCFNGRVVSWLVSA", "abundance fitness": "0.089 ± 0.066"},
      {"variant": "GETKIIYHLDGQETPYLVKLPLPAERVTLADFKGVLQRPSYKFFFKSNDDDFGVVKEEISDDNAKLPCFNGRVVSWLVSA", "abundance fitness": "0.567 ± 0.062"},
      {"variant": "GETKIIYHLDGQETPYLVKLPLPAERVTLADFKGVLQRPSYKFFFKSWDDDFGVVKEEISDDNAKLPCFNGRVVSWLVSA", "abundance fitness": "0.017 ± 0.059"},
      {"variant": "GETKIIYHLDGQETPYLVKLPLPAERVTLADFKGVLQRPSYKFFFKSYDDDFGVVKEEISDDNAKLPCFNGRVVSWLVSA", "abundance fitness": "0.175 ± 0.081"},
      {"variant": "GETKIIYHLDGQETPYLVKLPLPAERVTLADFKGVLQRPSYKFFFKSGDDDFGVVKEEISDDNAKLPCFNGRVVSWLVSA", "abundance fitness": "0.316 ± 0.038"},
      {"variant": "GETKIIYHLDGQETPYLVKLPLPAERVTLADFKGVLQRPSYKFFFKSHDDDFGVVKEEISDDNAKLPCFNGRVVSWLVSA", "abundance fitness": "0.056 ± 0.093"},
      {"variant": "GETKIIYHLDGQETPYLVKLPLPAERVTLADFKGVLQRPSYKFFFKSADDDFGVVKEEISDDNAKLPCFNGRVVSWLVSA", "abundance fitness": "0.287 ± 0.07"},
      {"variant": "GETKIIYHLDGQETPYLVKLPLPAERVTLADFKGVLQRPSYKFFFKSKDDDFGVVKEEISDDNAKLPCFNGRVVSWLVSA", "abundance fitness": "0.039 ± 0.072"},
      {"variant": "GETKIIYHLDGQETPYLVKLPLPAERVTLADFKGVLQRPSYKFFFPSMDDDFGVVKEEISDDNAKLPCFNGRVVSWLVSA", "abundance fitness": "-0.437 ± 0.096"},
      {"variant": "GETKIIYHLDGQETPYLVKLPLPAERVTLADFKGVLQRPSYKFFFSSMDDDFGVVKEEISDDNAKLPCFNGRVVSWLVSA", "abundance fitness": "-0.196 ± 0.064"},
      {"variant": "GETKIIYHLDGQETPYLVKLPLPAERVTLADFKGVLQRPSYKFFFDSMDDDFGVVKEEISDDNAKLPCFNGRVVSWLVSA", "abundance fitness": "-0.061 ± 0.1"},
      {"variant": "GETKIIYHLDGQETPYLVKLPLPAERVTLADFKGVLQRPSYKFFFESMDDDFGVVKEEISDDNAKLPCFNGRVVSWLVSA", "abundance fitness": "0.277 ± 0.052"},
      {"variant": "GETKIIYHLDGQETPYLVKLPLPAERVTLADFKGVLQRPSYKFFFCSMDDDFGVVKEEISDDNAKLPCFNGRVVSWLVSA", "abundance fitness": "-0.068 ± 0.11"},
      {"variant": "GETKIIYHLDGQETPYLVKLPLPAERVTLADFKGVLQRPSYKFFFMSMDDDFGVVKEEISDDNAKLPCFNGRVVSWLVSA", "abundance fitness": "-0.081 ± 0.071"},
      {"variant": "GETKIIYHLDGQETPYLVKLPLPAERVTLADFKGVLQRPSYKFFFFSMDDDFGVVKEEISDDNAKLPCFNGRVVSWLVSA", "abundance fitness": "-0.488 ± 0.26"},
      {"variant": "GETKIIYHLDGQETPYLVKLPLPAERVTLADFKGVLQRPSYKFFFQSMDDDFGVVKEEISDDNAKLPCFNGRVVSWLVSA", "abundance fitness": "0.165 ± 0.067"},
      {"variant": "GETKIIYHLDGQETPYLVKLPLPAERVTLADFKGVLQRPSYKFFFWSMDDDFGVVKEEISDDNAKLPCFNGRVVSWLVSA", "abundance fitness": "-0.227 ± 0.072"},
      {"variant": "GETKIIYHLDGQETPYLVKLPLPAERVTLADFKGVLQRPSYKFFFGSMDDDFGVVKEEISDDNAKLPCFNGRVVSWLVSA", "abundance fitness": "-0.223 ± 0.053"},
      {"variant": "GETKIIYHLDGQETPYLVKLPLPAERVTLADFKGVLQRPSYKFFFLSMDDDFGVVKEEISDDNAKLPCFNGRVVSWLVSA", "abundance fitness": "-0.138 ± 0.056"},
      {"variant": "GETKIIYHLDGQETPYLVKLPLPAERVTLADFKGVLQRPSYKFFFTSMDDDFGVVKEEISDDNAKLPCFNGRVVSWLVSA", "abundance fitness": "-0.392 ± 0.089"},
      {"variant": "GETKIIYHLDGQETPYLVKLPLPAERVTLADFKGVLQRPSYKFFFYSMDDDFGVVKEEISDDNAKLPCFNGRVVSWLVSA", "abundance fitness": "-0.401 ± 0.14"},
      {"variant": "GETKIIYHLDGQETPYLVKLPLPAERVTLADFKGVLQRPSYKFFFISMDDDFGVVKEEISDDNAKLPCFNGRVVSWLVSA", "abundance fitness": "-0.189 ± 0.11"},
      {"variant": "GETKIIYHLDGQETPYLVKLPLPAERVTLADFKGVLQRPSYKFFFVSMDDDFGVVKEEISDDNAKLPCFNGRVVSWLVSA", "abundance fitness": "-0.407 ± 0.062"},
      {"variant": "GETKIIYHLDGQETPYLVKLPLPAERVTLADFKGVLQRPSYKFFFNSMDDDFGVVKEEISDDNAKLPCFNGRVVSWLVSA", "abundance fitness": "-0.046 ± 0.1"},
      {"variant": "GETKIIYHLDGQETPYLVKLPLPAERVTLADFKGVLQRPSYKFFFRSMDDDFGVVKEEISDDNAKLPCFNGRVVSWLVSA", "abundance fitness": "-0.08 ± 0.045"}
    ]}
  ]
}
